Two molecules from PMC3792970, “A Single Nucleotide Polymorphism Associated with Hepatitis C Virus Infections Located in the Distal Region of the IL28B Promoter Influences NF-κB-Mediated Gene Transcription” can be followed below.

Series [1] addresses T1, NF-kB p50 (UniProt P19838 42-367). Nature of the series: EMSA; 2 ug p50; diffuse shift; EMSA: 1X BB stated as 50 mM Tris pH 8.0, 250 mM KCl, 2.5 mM EDTA, 0.5% Triton X-100, 62.5% glycerol, 1 mM DTT; 1 ug poly(dI:dC), 10 ul, room temperature 30 min, 4% native PAGE at 4 C; pull-down: 1X BB, poly(dI:dC), RT 2 h. The settings on record: protein: recombinant; chain copies: 2; label: 5'-32P on forward strand (EMSA); biotin (pull-down); blunt.

Series [2] addresses T1, NF-kB p50. Kind of series: EMSA; 2 ug p50; distinct bands; EMSA: 1X BB stated as 50 mM Tris pH 8.0, 250 mM KCl, 2.5 mM EDTA, 0.5% Triton X-100, 62.5% glycerol, 1 mM DTT; 1 ug poly(dI:dC), 10 ul, room temperature 30 min, 4% native PAGE at 4 C; pull-down: 1X BB, poly(dI:dC), RT 2 h. Particulars: protein: recombinant; chain copies: 2; label: 5'-32P on forward strand (EMSA); biotin (pull-down); blunt.

T1 sequence (P19838 42-367): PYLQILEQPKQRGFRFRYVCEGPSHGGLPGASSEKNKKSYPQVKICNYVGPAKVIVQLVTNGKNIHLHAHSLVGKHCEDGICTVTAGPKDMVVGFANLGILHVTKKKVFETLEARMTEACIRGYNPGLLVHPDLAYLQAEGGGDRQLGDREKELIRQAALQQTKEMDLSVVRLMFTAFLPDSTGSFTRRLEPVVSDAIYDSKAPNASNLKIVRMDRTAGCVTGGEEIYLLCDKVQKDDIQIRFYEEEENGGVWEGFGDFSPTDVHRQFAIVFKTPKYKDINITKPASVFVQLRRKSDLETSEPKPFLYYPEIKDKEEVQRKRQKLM

B1: G-T (NF813G-T) (dsDNA)
DNA 1: CCCCTGCCCTCAGTGGGCAGCCTCTGCATTCCCTCAGCTCCCTTTCTCTCTGTGA
DNA 2: TCACAGAGAGAAAGGGAGCTGAGGGAATGCAGAGGCTGCCCACTGAGGGCAGGGG
Turning to B1, the binding result with NF-kB p50 [1] is given as “binds”.

B2: C-C (NFC-C849) (dsDNA)
DNA 1: CCCCTGCCCTCAGTGGGCAGCCTCTCCATCCCCTCAGCTCCCTTTCTCTCTGTGA
DNA 2: TCACAGAGAGAAAGGGAGCTGAGGGGATGGAGAGGCTGCCCACTGAGGGCAGGGG
For the molecule B2, the binding result with NF-kB p50 [2] is listed as “binds”.
